From paper PMC12572175, “A synergistic generative-ranking framework for tailored design of therapeutic single-domain antibodies” (Cell Discovery, 2025)

Biological target: T1, Recombinant human TNFα (Homo sapiens, UniProt P01375)
T1 construct: human TNFα, residues 77-233 of GenBank AAA61198.1, behind an N-terminal signal peptide and 6x His tag; also called hTNFα; TFNα; source: Expi293, transient transfection, purified (Ni-NTA)
Experiment: ELISA; 100-200 ng/well antigen coated in PBS, sdAbs added in 3-fold serial dilutions, 1.5 h at 37 °C, detected with HRP anti-flag antibody
Settings: both partners purified

T1 sequence (P01375 77-233): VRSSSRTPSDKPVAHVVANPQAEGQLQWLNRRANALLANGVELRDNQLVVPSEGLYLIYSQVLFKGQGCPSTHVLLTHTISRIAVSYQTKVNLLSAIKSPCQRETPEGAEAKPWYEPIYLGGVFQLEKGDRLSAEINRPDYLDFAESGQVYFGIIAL

| Binder | binding result |
| --- | --- |
| VHH3-M1 (VHH, redesigned variant of VHH3 (carries L90Q, IMGT numbering); Designed by TFDesign-sdAb; pComb3x with N-terminal OmpA signal peptide; also called VHH-M1; source: E. coli HB2151, purified (Ni-NTA or Protein A resin); also in lysis supernatant; not shown: FLAG, C-terminal, kept) VHH: QVQLQDSGGGLVQAGGSLRLSCAVSGRTFSAHSVYTMGWFRQAPGKEREFVARIYWSSANTYYADSVKGRFTISRDNAKNTVDLQMNSLRPEDTAVYYCAARDGIPTSRTVGSYNYWGQGTQVTVSS | binds |
| VHH3-M3 (VHH, redesigned variant of VHH3 (carries L90Q; differs from VHH3-M1 only at position 88, IMGT numbering); Designed by TFDesign-sdAb; pComb3x with N-terminal OmpA signal peptide; also called VHH-M3; source: E. coli HB2151, purified (Ni-NTA or Protein A resin); also in lysis supernatant; not shown: FLAG, C-terminal, kept) VHH: QVQLQDSGGGLVQAGGSLRLSCAVSGRTFSAHSVYTMGWFRQAPGKEREFVARIYWSSANTYYADSVKGRFTISRDNAKNTVYLQMNSLRPEDTAVYYCAARDGIPTSRTVGSYNYWGQGTQVTVSS | binds |
